From patent US7122374

Assays:
Assay in all cases: ELISA, peptide coated at 1 µg/mL, mAb4G8 diluted 1000 times, HRP anti-mouse Igs
AβN3E-42 = biological target: AβN3E-42
Aβ1-40 = biological target: Aβ1-40
AβN3pE-42 = biological target: AβN3pE-42
AβN3pE-42, sequence (peptide, as listed by the source): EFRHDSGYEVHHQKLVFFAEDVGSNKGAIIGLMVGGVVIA

Aβ1-40, sequence (peptide, as listed by the source): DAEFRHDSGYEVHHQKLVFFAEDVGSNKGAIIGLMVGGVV

monoclonal antibody mAb4G8 (SENETEC Inc)
absorbance at 450 nm (AβN3E-42): 1.39 A450
absorbance at 450 nm (Aβ1-40): 1.57 A450
absorbance at 450 nm (AβN3pE-42): 2.27 A450
